The target of the test is EmER1, EGF receptor of Echinococcus multilocularis, extracellular region in the MALAR-Y2H receptor vector (Echinococcus multilocularis).

Take “human EGF, extracellular domain in the MALAR-Y2H ligand vector (from UniProt P01133 23-1032)”: the germinal vesicle breakdown (GVBD) of Xenopus oocytes expressing EmER1 from cRNA, stimulated by 50 nM recombinant human EGF, counted after 15 h was 30%.

Values taken from publication PMC12963305.
